What was measured:
[1] = molecular target: T1, rHuman HGF R/c-MET/Fc Chimera, CF (R&D Systems Cat#358-MT/CF) (human, UniProt P08581 25-932); assay: MSD ECL multispot assay, antigen spotted on plate, Fab in solution; blank spot of this row 274
T1 construct: Bought recombinant protein; also called HGF R/Fc; not shown: Fc of the bought chimera

[2] = molecular target: T2, rHuman IGF-1 sR (insulin-like growth factor-1 soluble receptor), CF (R&D Systems Cat#391-GR) (human, UniProt P08069 31-932); assay: as above
T2 construct: Bought recombinant soluble receptor

[3] = molecular target: T3, rHuman P-Cadherin/Fc Chimera, CF (R&D Systems Cat#861-PC) (human, UniProt P22223 108-654); assay: as above
T3 construct: Bought recombinant protein; not shown: Fc of the bought chimera

[4] = molecular target: T4, Recombinant Human DLL4 (R&D Systems Cat#1506-D4/CF) (human, UniProt Q9NR61 27-524); assay: as above
T4 construct: Bought recombinant protein; also called delta-like protein 4; rHuman DLL4

[5] = molecular target: T5, rHuman ErbB2/Fc Chimera, CF (R&D Systems Cat#1129-ER) (human, UniProt P04626 23-652); assay: as above
T5 construct: Bought recombinant protein; not shown: Fc of the bought chimera

[6] = molecular target: T6, rHuman EGF R/Fc Chimera, CF (R&D Systems Cat#344-ER) (human, UniProt P00533 25-645); assay: as above
T6 construct: Bought recombinant protein; not shown: Fc of the bought chimera

[7] = molecular target: T1, rHuman HGF R/c-MET/Fc Chimera, CF (R&D …); assay: MSD ECL multispot assay, antigen spotted on plate, Fab in solution; blank spot of this row 277
[8] = molecular target: T2, rHuman IGF-1 sR (insulin-like growth …); assay: as above
[9] = molecular target: T3, rHuman P-Cadherin/Fc Chimera, CF (R&D …); assay: as above
[10] = molecular target: T4, Recombinant Human DLL4 (R&D Systems …); assay: as above
[11] = molecular target: T5, rHuman ErbB2/Fc Chimera, CF (R&D …); assay: as above
[12] = molecular target: T6, rHuman EGF R/Fc Chimera, CF (R&D …); assay: as above
[13] = molecular target: T1, rHuman HGF R/c-MET/Fc Chimera, CF (R&D …); assay: MSD ECL multispot assay, antigen spotted on plate, Fab in solution; blank spot of this row 282
[14] = molecular target: T2, rHuman IGF-1 sR (insulin-like growth …); assay: as above
[15] = molecular target: T3, rHuman P-Cadherin/Fc Chimera, CF (R&D …); assay: as above
[16] = molecular target: T4, Recombinant Human DLL4 (R&D Systems …); assay: as above
[17] = molecular target: T5, rHuman ErbB2/Fc Chimera, CF (R&D …); assay: as above
[18] = molecular target: T6, rHuman EGF R/Fc Chimera, CF (R&D …); assay: as above
[19] = molecular target: T1, rHuman HGF R/c-MET/Fc Chimera, CF (R&D …); assay: MSD ECL multispot assay, antigen spotted on plate, Fab in solution; blank spot of this row 278
[20] = molecular target: T7, rHuman Notch-1/Fc Chimera, CF (R&D Systems Cat#3647-TK) (human, UniProt P46531 19-526); assay: as above
T7 construct: Bought recombinant protein; not shown: Fc of the bought chimera

[21] = molecular target: T8, rHuman CD44/Fc Chimera, CF (R&D Systems Cat#3660-CD) (human, UniProt P16070 21-220); assay: as above
T8 construct: Bought recombinant protein; not shown: Fc of the bought chimera

[22] = molecular target: T2, rHuman IGF-1 sR (insulin-like growth …); assay: as above
[23] = molecular target: T3, rHuman P-Cadherin/Fc Chimera, CF (R&D …); assay: as above
[24] = molecular target: T9, rHuman Erythropoietin R/Fc Chimera, CF (R&D Systems Cat#963-ER) (human, UniProt P19235 25-250); assay: as above
T9 construct: Bought recombinant protein; also called EPO R; EPO R/Fc; not shown: Fc of the bought chimera
T9 sequence (looked up): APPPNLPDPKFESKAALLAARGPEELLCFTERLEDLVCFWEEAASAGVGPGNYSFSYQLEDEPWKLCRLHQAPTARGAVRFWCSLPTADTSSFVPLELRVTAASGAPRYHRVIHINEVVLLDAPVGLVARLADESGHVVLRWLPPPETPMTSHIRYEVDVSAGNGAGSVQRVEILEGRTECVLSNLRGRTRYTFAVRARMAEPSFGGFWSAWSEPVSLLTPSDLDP

[25] = molecular target: T4, Recombinant Human DLL4 (R&D Systems …); assay: as above
[26] = molecular target: T5, rHuman ErbB2/Fc Chimera, CF (R&D …); assay: as above
[27] = molecular target: T6, rHuman EGF R/Fc Chimera, CF (R&D …); assay: as above
[28] = molecular target: T1, rHuman HGF R/c-MET/Fc Chimera, CF (R&D …); assay: MSD ECL multispot assay, antigen spotted on plate, Fab in solution; blank spot of this row 317
[29] = molecular target: T7, rHuman Notch-1/Fc Chimera, CF (R&D …); assay: as above
[30] = molecular target: T8, rHuman CD44/Fc Chimera, CF (R&D Systems …); assay: as above
[31] = molecular target: T2, rHuman IGF-1 sR (insulin-like growth …); assay: as above
[32] = molecular target: T3, rHuman P-Cadherin/Fc Chimera, CF (R&D …); assay: as above
[33] = molecular target: T9, rHuman Erythropoietin R/Fc Chimera, CF …; assay: as above
[34] = molecular target: T5, rHuman ErbB2/Fc Chimera, CF (R&D …); assay: as above
[35] = molecular target: T6, rHuman EGF R/Fc Chimera, CF (R&D …); assay: as above

T1 sequence (P08581 25-932, change not shown): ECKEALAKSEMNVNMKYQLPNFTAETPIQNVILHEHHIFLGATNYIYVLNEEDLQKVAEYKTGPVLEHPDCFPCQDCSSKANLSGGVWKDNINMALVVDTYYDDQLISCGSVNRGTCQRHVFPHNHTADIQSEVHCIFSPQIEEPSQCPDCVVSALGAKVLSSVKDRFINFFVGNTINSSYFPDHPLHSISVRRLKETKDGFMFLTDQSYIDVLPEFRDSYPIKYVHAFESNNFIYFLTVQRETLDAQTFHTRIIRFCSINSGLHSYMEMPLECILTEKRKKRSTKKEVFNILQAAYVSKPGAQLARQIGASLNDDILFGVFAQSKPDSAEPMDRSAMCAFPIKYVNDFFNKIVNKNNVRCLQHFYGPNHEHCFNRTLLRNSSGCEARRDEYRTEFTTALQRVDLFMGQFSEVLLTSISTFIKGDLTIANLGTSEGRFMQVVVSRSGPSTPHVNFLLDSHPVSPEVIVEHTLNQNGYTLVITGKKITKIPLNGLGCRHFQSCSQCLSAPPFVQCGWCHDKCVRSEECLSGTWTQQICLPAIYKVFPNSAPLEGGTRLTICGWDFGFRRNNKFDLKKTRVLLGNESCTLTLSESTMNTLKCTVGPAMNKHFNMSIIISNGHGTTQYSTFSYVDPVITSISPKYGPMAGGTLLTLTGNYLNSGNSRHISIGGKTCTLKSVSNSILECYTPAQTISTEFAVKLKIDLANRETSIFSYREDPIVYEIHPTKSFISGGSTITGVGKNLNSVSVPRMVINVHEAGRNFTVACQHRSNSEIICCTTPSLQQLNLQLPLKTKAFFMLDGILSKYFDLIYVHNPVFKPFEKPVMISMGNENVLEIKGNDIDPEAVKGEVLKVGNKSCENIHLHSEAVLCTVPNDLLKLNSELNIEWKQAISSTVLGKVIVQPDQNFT

B1: Fab VH1-46_IGHD6-6*01_IGHJ1*01 S102A/S103P/S104F/H111F (APFF) & L6_IGKJ1*01 (Fab, V domains shown)
VH: QVQLVQSGAEVKKPGASVKVSCKASGYTFTSYYMHWVRQAPGQGLEWMGIINPSGGSTSYAQKFQGRVTMTRDTSTSTVYMELSSLRSEDTAVYYCAREEYAPFSAEYFQFWGQGTLVTVSS
VL: not shown
notes: Fab; also called APFF / parent; H:APFF & L:wt
An ECL signal [1] of 339, an ECL signal [2] of 305 and an ECL signal [3] of 283 were found for B1 in this work. It also gave an ECL signal [4] of 164000, an ECL signal [5] of 236 and an ECL signal [6] of 266. The ECL signal [7] was 267, the ECL signal [8] was 221 and the ECL signal [9] was 299. For the same binder, the ECL signal [10] was 165000, the ECL signal [11] was 311 and the ECL signal [12] was 307. For the same binder, the ECL signal [13] was 321, the ECL signal [14] was 249 and the ECL signal [15] was 302. For the same binder, the ECL signal [16] was 165000, the ECL signal [17] was 259 and the ECL signal [18] was 290.

B2: Fab VH1-46_IGHD6-6*01_IGHJ1*01 S102A/S103P/S104F/H111F (APFF) & L6_IGKJ1*01 S92T (Fab, V domains shown)
VH: QVQLVQSGAEVKKPGASVKVSCKASGYTFTSYYMHWVRQAPGQGLEWMGIINPSGGSTSYAQKFQGRVTMTRDTSTSTVYMELSSLRSEDTAVYYCAREEYAPFSAEYFQFWGQGTLVTVSS
VL: EIVLTQSPATLSLSPGERATLSCRASQSVSSYLAWYQQKPGQAPRLLIYDASNRATGIPARFSGSGSGTDFTLTISSLEPEDFAVYYCQQRTNWPPWTFGQGTKVEIKR
notes: Fab; also called APFF / S92T
An ECL signal [19] of 290, an ECL signal [20] of 231 and an ECL signal [21] of 290 were found for B2 in this work. For the same binder, the ECL signal [22] was 308, the ECL signal [23] was 387 and the ECL signal [24] was 424. It also gave an ECL signal [25] of 54100, an ECL signal [26] of 237 and an ECL signal [27] of 295.

B3: Fab VH1-46_IGHD6-6*01_IGHJ1*01 S102A/S103P/S104F/H111F (APFF) & L6_IGKJ1*01 S92V (Fab, V domains shown)
VH: QVQLVQSGAEVKKPGASVKVSCKASGYTFTSYYMHWVRQAPGQGLEWMGIINPSGGSTSYAQKFQGRVTMTRDTSTSTVYMELSSLRSEDTAVYYCAREEYAPFSAEYFQFWGQGTLVTVSS
VL: EIVLTQSPATLSLSPGERATLSCRASQSVSSYLAWYQQKPGQAPRLLIYDASNRATGIPARFSGSGSGTDFTLTISSLEPEDFAVYYCQQRVNWPPWTFGQGTKVEIKR
notes: Fab; also called APFF / S92V
An ECL signal [28] of 230, an ECL signal [29] of 262 and an ECL signal [30] of 248 were found for B3 in this work. The ECL signal [31] was 244, the ECL signal [32] was 373 and the ECL signal [33] was 371. For the same binder, the ECL signal [34] was 188 and the ECL signal [35] was 319.

Source: patent publication US20120316071A1 (published 2012)
